Patent publication WO2009150539A2 (dated 2009)
Numbering of substitutions follows the chain as printed. “And” between values parts separate entries of the source, which are not always exact repeats. Equal values may be shown once.

B1: AahI'B1 (VHH)
VHH: QVQLQESGGGSVQAGGSLRLSCTASKYTSAVGWFRQAPGKEREGVASIYGYTGSGSSGSTYYADSGKGRFTISRDSAKNMVYLQMNSLKPEDTAMYYCTAADRPRFRLLVEDDVVYWGQGTQVTVSS
B2: NbAahII39 (VHH)
VHH: QVQLVESGGGSVQAGGSLRLSCAASGYTCTKFNMGWYRQAPGKERKMVATIRRDGTTYYADSVKGRFTISQDNAKNTVYLQMTSLKPEDSAMYYCSFRCVTPSLPYWGQGTQVTVSS
notes: also called cluster G
B3: AahI'C14 (VHH)
VHH: QVQLQESGGGSVQAEGSLRLSCTVSGLTSSSNYVGWFRQAPGKEREGVATIGPYTRNTRYADSVNGRFTISLDNAKSTLYLQMNGLKPEDTAIYYCAAGKTTWIRALRSDDYKYWGQGTQVTVSS
B4: NbAahII36 (VHH)
VHH: QVQLVESGGGSVQAGGSLRLSCAASGYTFSNYRMGWFRQAPGKECELVSTILTDGSTNYADSVKGRFTISRDNAKNTVYLLMNNLKAEDTAVYYCAAGNSRKGYLRRCGGTDFGYWGQGTQVTVSS
notes: also called cluster C
B5: NbAahII18 (VHH)
VHH: QVQLQESGGGSVQAGGSLRLSCAASGDSYSNYYMAWFRQAPGKEREGVAHINRSGRITLYADSVKGRFTMSRDNAKNTVYLQMNSLRPEDTAIYYCAAGVRTHMPPLASYGFDYWGQGTQVTVSS
notes: also called NbAahlllδ; NbAahll l δ
B6: NbAahII08 (VHH)
VHH: B5 VHH with Q1D, Q5V, R87K
notes: also called cluster F
B7: AahI'D19 (VHH)
VHH: QVQLQESGGGLVQPGGSLRLSCAVTDFTFSFYWMYWVRQAPGKNLEWISSLHSDGYTYYPDSVKGRFTISRDTAKNMLYLQMNSLKPEDTAVYYCATAIRNMWGQAAPGSAGYWGQGTQVTVSS
B8: AahI'D10 (VHH)
VHH: QVQLQESGGGSVQAGGSLRLSCAASVDTFSTTCMGWFRQTPGKEREGVAVIKTFYAGTVYADSVKGRFTISQDIAKNTVYLQMNSLNPEDTAMYYCAATGGPYNGRCPLASQPFRYWTQGTQVTVSS
B9: AahI'A3 (VHH)
VHH: QVQLQESGGGSVQAGGSLRLSCAASGFTFRSPYCMGWFRQAPGKEREAVAAIKTYYAGTVYADSMKGRFTITQDIAKNTVYLQMNSLKPEDTATYYCAATGGPYNGRCPLTSQPFPNWGQGTQVTVSS
B10: AahI'A2 (VHH)
VHH: QVQLQESGGGSVQAGGSLRLSCAASGFPASSYCMAWFRQAPGKEREGLAAIYNGGRRYYPDSLKGRFTIEDKAENTIYLEMNSLKPEDTATYYCAARSNQCWYATLQQSWYPYWGQGTQVTVSS
B11: AahI'F12 (VHH)
VHH: QVQLQESGGGSVQAGGSLRLSCVGPGISYVYNRVGWFRQAPGKESEVVAAFYTSNTSALYYAAQVKGRFTISQGNAKNTVYLQMNNLKPEDSGKYYCATANGGLLSDARGYRHYGQGTQVTVSS
B12: NbAahII12 (VHH)
VHH: QVQLVESGGGLVQPGGSLRLSCAASGFSFNIYAMSWVRQAPGKQFEWVSGIHPNGRSTYYTDSVKGRFTISRDNAKNTLYLQLDSLKTEDTAMYYCAKGVLTKYVGGARGQGTQVTVSS
notes: Purified from E. coli periplasm with His6; also called cluster I
B13: AahI'C13 (VHH)
VHH: QVQLQESGGGSVQPGGSLRLSCAASGYIYSRYCMGWFRQAPGKEREGVAVISGYGTTHFADSAKGRFTISQDKAKNMVYLQMNSLRPEDTAIYYCAVRQWDCYSANWPQTHTYDYWGQGTQVTVSS
B14: NbAahII05 (VHH)
VHH: QVQLQESGGGSVQAGGSLRLSCAASGYTCTKFNMGWYRQAPGKQREFVASIRRDSTIYYGDSVKGRFTISQDNAKNMVYLQMTSLKPEDSAMYYCSTRCLTSSVPYWGQGTQVTVSS
notes: also called cluster G
B15: AahI'B2 (VHH)
VHH: QVQLQESGGGSVQAGGSLRLSCVASEYSYRRNCMAWYRQAPGKEREGVARISTAYDITYYADSANGRFTISQDKAKKTVYLQMNSLKPEDSAMYYCSVSTGSDCYSMSLPRMDYWGKGTQVTVSS
B16: AahI'D11 (VHH)
VHH: QVQLQESGGGSVEAGGSLRLSCATSGFTFSRYAMYWFRQAPGMECEWVSTIHTNGDTYYANSLKGRFTGSRDNAKNTAYLQMNSLKPEDTAVYYCHAPLNDGSTPTHICSRAGSYGYWGQGTQVTVSS
B17: AahI'B23 (VHH)
VHH: QVQLQESGGGSVQAGGSLRLSCAASGYQQTGYCMGWFRQAPGKEREGVAVIKTFYAGTVYADSVKGRFTISQDIAKNTVYLQMNSLQPEDTAMYYCAITGGPWNGRCPLTSQAFRYWGQGTQVTVSS
B18: AahI'A17 (VHH)
VHH: QVQLQESGGGSVQDGGSLTLSCAASSSYVFNNLNMGWFRQAPGKECELVSTLFVNGITNYADSVKGRFTVSRDNAKNTVFLHMTNLSTEDTAVYYCAAPDVCSATRCGPACRGQGTQVTVSS
B19: NbAahII41 (VHH)
VHH: QVQLVESGGGSVQAGGSLRLSCAASGFDFSIYVMSWVRQAPGKGLEWISGIMPSGQTTYADAVKGRFTISRDNAKNTLYLQLNSLKTEDTAIYYCAKGVYTKYVGGARGQGTQVTVSS
notes: also called cluster I
B20: NbAahII20 (VHH)
VHH: QVQLQESGGGLVQPGGSLRLSCTASGFDFSRYVMSWVRQAPGKDFEWISGIMPLSSAGTTYADAVKGRFTISRDNAKNTLYLQLNNLKTEDTAIYYCAKGVYTTYIGGARGQGTQVTVSS
notes: Purified from E. coli periplasm with His6; also called NbAahIKO (I); cluster I
B21: AahI'A19 (VHH)
VHH: QVQLQESGGGSVQAGGSLRLSCVASEYSECIGWFRQAPGKEREGVAAIEKVLGQRWRADSIHDRITISQDKAKNTVYLQMTSLKIDDTAMYYCAAKGRGCMSQPTTGYLSWGQGTQVTVSS

Key:
[1] = biological target: AahI' toxin of Androctonus australis hector (Androctonus australis hector) (UniProt P01479); assay: cell-based or functional assay
AahI' toxin of Androctonus australis hector (Androctonus australis hector), sequence (P01479 20-82): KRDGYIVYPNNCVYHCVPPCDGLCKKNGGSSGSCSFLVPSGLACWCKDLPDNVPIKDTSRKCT

[2] = biological target: T1, AahII toxin of Androctonus australis hector (Androctonus australis hector, UniProt P01484 20-83); assay: SPR (BIAcore), AahII immobilised on CM5 chip, Nb in mobile phase
T1 construct: mature; also called Aahll
T1 sequence: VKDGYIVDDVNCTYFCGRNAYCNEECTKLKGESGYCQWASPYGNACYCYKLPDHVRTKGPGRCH

[3] = biological target: T1, AahII toxin of Androctonus australis …; assay: cell-based or functional assay

| Binder | surviving mice; i.c.v.; 4 LD50 AahI'; ratio 1:2 (survivors of 4 mice) [1] | Kd [2] [nM] | koff [2] [s⁻¹] | kon [2] [M⁻¹ s⁻¹] | other results |
| --- | --- | --- | --- | --- | --- |
| B1 | 0 |  |  |  |  |
| B2 |  | 0.16 | 0.00105 | 6.41e+06 |  |
| B3 | 0 |  |  |  |  |
| B4 |  | 0.67 | 0.00137 | 2.04e+06 | Survivors/Injected mice; i.c.v.; AahII:Nb 1:2; 2 LD50/mouse; 24 ng Nb/mouse [3]: 1 survivors of 4 mice; Survivors/Injected mice; i.c.v.; AahII:Nb 1:2; 3 LD50/mouse; 36 ng Nb/mouse [3]: 0 survivors of 4 mice |
| B5 |  | 0.18 | 0.0016 | 8.95e+06 | NC = (LD50 with Nb - LD50 without Nb)/Nb; i.c.v.; AahII:Nb 1:4 [3]: 27000 LD50/mg and 400 LD50/nmol; Survivors/Injected mice; i.c.v.; AahII:Nb 1:2; 3 LD50/mouse; 36 ng Nb/mouse [3]: 1 survivors of 4 mice; Survivors/Injected mice; i.c.v.; AahII:Nb 1:2; 4 LD50/mouse; 48 ng Nb/mouse [3]: 0 survivors of 4 mice; Survivors/Injected mice; i.c.v.; AahII:Nb 1:4; 2 LD50/mouse; 48 ng Nb/mouse [3]: 2 survivors of 4 mice; Survivors/Injected mice; i.c.v.; AahII:Nb 1:4; 3 LD50/mouse; 72 ng Nb/mouse [3]: 2 survivors of 4 mice |
| B6 |  | 0.12 | 0.00138 | 1.19e+07 |  |
| B7 | 4 |  |  |  |  |
| B8 | 3 |  |  |  |  |
| B9 | 4 |  |  |  |  |
| B10 | 0 |  |  |  |  |
| B11 | 4 |  |  |  | surviving mice; i.c.v.; 20 LD50 AahI'; ratio 1:2 (survivors of 4 mice) [1]: 4; surviving mice; i.c.v.; 23 LD50 AahI'; ratio 1:2 (survivors of 4 mice) [1]: 4; surviving mice; i.c.v.; 26 LD50 AahI'; ratio 1:2 (survivors of 4 mice) [1]: 4; surviving mice; i.c.v.; 29 LD50 AahI'; ratio 1:2 (survivors of 4 mice) [1]: 4; surviving mice; i.c.v.; 33 LD50 AahI'; ratio 1:2 (survivors of 4 mice) [1]: 4; surviving mice; i.c.v.; 37 LD50 AahI'; ratio 1:2 (survivors of 4 mice) [1]: 4; surviving mice; i.c.v.; 47 LD50 AahI'; ratio 1:2 (survivors of 4 mice) [1]: 4; surviving mice; i.c.v.; 60 LD50 AahI'; ratio 1:2 (survivors of 4 mice) [1]: 4; surviving mice; i.c.v.; 70 LD50 AahI'; ratio 1:2 (survivors of 4 mice) [1]: 4; surviving mice; i.c.v.; 75 LD50 AahI'; ratio 1:2 (survivors of 4 mice) [1]: 4; surviving mice; i.c.v.; 80 LD50 AahI'; ratio 1:2 (survivors of 4 mice) [1]: 4; surviving mice; i.c.v.; 90 LD50 AahI'; ratio 1:2 (survivors of 4 mice) [1]: 4; surviving mice; i.c.v.; 95 LD50 AahI'; ratio 1:1 (survivors of 4 mice) [1]: 2; surviving mice; i.c.v.; 95 LD50 AahI'; ratio 1:2 (survivors of 4 mice) [1]: 4; surviving mice; i.c.v.; 100 LD50 AahI'; ratio 1:1 (survivors of 4 mice) [1]: 2; surviving mice; i.c.v.; 100 LD50 AahI'; ratio 1:2 (survivors of 4 mice) [1]: 4 |
| B12 |  | 0.28 | 0.0016 | 5.63e+06 | NC = (LD50 with Nb - LD50 without Nb)/Nb; i.c.v.; AahII:Nb 1:4 [3]: 27000 LD50/mg and 400 LD50/nmol; Survivors/Injected mice; i.c.v.; AahII:Nb 1:4; 2 LD50/mouse; 48 ng Nb/mouse [3]: 3 survivors of 4 mice; Survivors/Injected mice; i.c.v.; AahII:Nb 1:4; 3 LD50/mouse; 72 ng Nb/mouse [3]: 2 survivors of 4 mice |
| B13 | 2 |  |  |  |  |
| B14 |  | 0.67 | 0.00186 | 2.77e+06 | Survivors/Injected mice; i.c.v.; AahII:Nb 1:2; 2 LD50/mouse; 24 ng Nb/mouse [3]: 4 survivors of 4 mice; Survivors/Injected mice; i.c.v.; AahII:Nb 1:2; 3 LD50/mouse; 36 ng Nb/mouse [3]: 4 survivors of 4 mice; Survivors/Injected mice; i.c.v.; AahII:Nb 1:2; 4 LD50/mouse; 48 ng Nb/mouse [3]: 1 survivors of 4 mice; Survivors/Injected mice; i.c.v.; AahII:Nb 1:4; 3 LD50/mouse; 72 ng Nb/mouse [3]: 4 survivors of 4 mice |
| B15 | 4 |  |  |  |  |
| B16 | 2 |  |  |  |  |
| B17 | 0 |  |  |  |  |
| B18 | 4 |  |  |  |  |
| B19 |  | 2.31 | 0.01 | 4.33e+06 |  |
| B20 |  | 0.26 | 0.00213 | 8.18e+06 | NC = (LD50 with Nb - LD50 without Nb)/Nb; i.c.v.; AahII:Nb 1:4 [3]: 27000 LD50/mg and 400 LD50/nmol; Survivors/Injected mice; i.c.v.; AahII:Nb 1:2; 2 LD50/mouse; 24 ng Nb/mouse [3]: 3 survivors of 4 mice; Survivors/Injected mice; i.c.v.; AahII:Nb 1:2; 4 LD50/mouse; 48 ng Nb/mouse [3]: 2 survivors of 4 mice; Survivors/Injected mice; i.c.v.; AahII:Nb 1:4; 3 LD50/mouse; 72 ng Nb/mouse [3]: 2 survivors of 4 mice |
| B21 | 4 |  |  |  |  |
